# Reference: patent publication US20180021429A1, “ANTICANCER AGENTS OR ANTIMETASTATIC AGENTS USING FSTL1 AND COMBINATION DRUG THEREOF” (PHARMA FOODS INTERNATIONAL CO., LTD., priority 2015, published 2018)
# Positions count from the first letter of the chain named.
# B1: #13: chicken-mouse chimeric anti-FSTL1 antibody clone; variable regions SEQ ID NO: 815 (light), 817 (heavy) (antibody, V domains shown)
# VH: AVTLDESGGGLQTPGGGLSLVCKASGFTFSSVTMQWVRQAPGKGLEWVASICSGSSTYYGPAVKGRATISRDNGQNTVRLQLNNLRAEDTATYYCAKIVGRGRWSCTSAAYNIDAWGHGTEVIVSS
# VL: ASTQPSSVSANPGETVKITCSGGGNNYGWYQQKSPGSAPVTVIYNNNNRPSNIPSRFSGSKSGSTNTLTITGVQAEDEAVYYCGSYDSSSDSGIFGAGTTLTVL
# modifications: mouse constant regions
# B2: #33: chicken-mouse chimeric anti-FSTL1 antibody clone; variable regions SEQ ID NO: 823 (light), 825 (heavy) (antibody, V domains shown)
# VH: AVTLDESGGGLQTPGGGLSLVCKASGFTFSSFNMNWVRQAPGKGLEYVAEISGTGSSTYYGSAVKGRATISRDNGQSTVRLQLNNLRAEDTATYFCARGDGAYSIDAWGHGTEVIVSS
# VL: ASTQPSSVSANPGETVEITCSGDSSYYGWFQQKSPGSAPVTVIYDNTNRPSDIPSRFSGSKSGSTATLTITGVRAEDEAVYYCGGYDSSTYDGIFGAGTTLTVL
# modifications: mouse constant regions
# B3: #5-43: chicken-mouse chimeric anti-FSTL1 antibody clone; variable regions SEQ ID NO: 779 (light), 781 (heavy) (antibody, V domains shown)
# VH: AVTLDESGGGLQTPGGGLSLVCKGSGFTFSSFNMFWVRQAPGKGLEWVAGIGKDGGTGYGAAVDGRATISKDSGQSTLRLQLNNLRAEDTGTYYCAKAAGGCSYDWCGAYTGDIDTWGHGTEVIVSS
# VL: ASTQPSSVSANPGEAVKITCSGGSGSYYGWYQQKSPGSAPVTVIYNNNQRPSDIPSRFSGSKSGSTATLTITGVQAEDEAVYFCGGYDSSTGHGGIFGAGTTLTVL
# modifications: mouse constant regions
# B4: #8-1: chicken-mouse chimeric anti-FSTL1 antibody clone; variable regions SEQ ID NO: 791 (light), 793 (heavy) (antibody, V domains shown)
# VH: B3 VH with G17A, G56V, T57P, G58K, S73N, L78M, Y94F, A109I, T111A
# VL: B3 VL with T91S
# modifications: mouse constant regions
# B5: #6-55: chicken-mouse chimeric anti-FSTL1 antibody clone; variable regions SEQ ID NO: 783 (light), 785 (heavy) (antibody, V domains shown)
# VH: AVTLDESGGGLQTPGGALSLVCKGSGFTFTSVTMQWVRQAPGKGLEWVASVCSGSSTYYAPAVKGRATISRDNGQSTVRLQLSNLRPEDTGTYYCAKIAGRARWSCTSAAYNIDAWGHGTEVIVSS
# VL: ASTQPSSVSAIPGETVKITCSGGGNNYGWYQQRSPGSAPVTVIYYNDNRPSNIPSRFSGSTSGSTSTLTITGVQADDEAIYYCGSWDSNTDSGIFGAGTTLTVL
# modifications: mouse constant regions
# B6: #7-34: chicken-mouse chimeric anti-FSTL1 antibody clone; variable regions SEQ ID NO: 787 (light), 789 (heavy) (antibody, V domains shown)
# VH: B1 VH
# VL: B1 VL with N45Y, K61T, N66S, D87E, S88G, S90T
# modifications: mouse constant regions
# How the values were obtained:
# [1] = tested on: GFP+F10-snail+ tumor cells; test: In vivo drug efficacy of each anti-FSTL1 antibody clone, Snail+ tumor bone metastasis model (Example 32); parameters: species or system mouse; conditions: intraperitoneal 10 mg/kg on days 4 and 7; for suppressive activity against subcutaneous tumor growth: FIG. 26, vs control antibody; for mouse survival period (life-prolonging effect): FIG. 27
# Description: • Day 0: transplantation of GFP+F10-snail+ tumor cells (3×10^5 cells subcutaneously & 2×10^4 cells intravenously) • Day 4: intraperitoneal administration of the antibody (first dose, 10 mg/kg) • Day 7: intraperitoneal administration of the antibody (second dose, 10 mg/kg)
# Subcutaneous tumor was measured 4, 7, 10, 14, 17, 20, and 23 days after tumor cell transplantation.
# [2] = tested on: induction of mesenchymal stem cells (MSCs) by FSTL1; test: Inhibitory activity against MSC induction, ALCAM-/PDGFRA-positive cells (Example 4); format: cell-based; conditions: mouse bone marrow cells; FSTL1 50 ng/mL; antibody 10 μg/mL; 11 days; vs control antibody
# Description: It is known that when bone marrow cells are stimulated with FSTL1, mesenchymal stem cells (MSCs) having pluripotency or self-proliferative capacity grow (Cancer Research 73: 6185, 2013). Thus, 2×10^7 cells/well of bone marrow cells collected from the thigh bone of a C57BL/6 mouse were suspended in 3 mL/well of RPMI1640 (GIBCO/Thermo Fisher Scientific Inc., Cat. No. C11875500BT) medium containing 2% fetal bovine serum, supplemented with 50 ng/mL (final concentration) of FSTL1 (R&D Systems, Inc. Cat#1694-FN-050) and 10 μg/mL of the anti-FSTL1 antibody (#5-2, #5-3, #5-8, #5-10, #5-43, #6-55, or #7-34) or its isotype mouse IgG (anti-DNP antibody) as a control antibody “Control”, and cultured under stimulation (6-well plate). 11 days thereafter, the number of cells was counted while the cells were stained with a PE-labeled anti-ALCAM antibody
# (eBioscience, Cat. No. 12-1661-82) and a PE-labeled anti-PDGFRA antibody (eBioscience, Cat#12-1401-81) in order to examine the expression of MSC markers, and the contents of ALCAM-positive cells and PDGFR-positive cells were analyzed by flow cytometry using FACScan (Becton, Dickinson and Company, Code. BECTON-DICKINSON-FACSCAN) to calculate the number of each positive cell per culture.
# It is known that when bone marrow cells are stimulated with FSTL1, mesenchymal stem cells (MSCs) having pluripotency or self-proliferative capacity grow (Cancer Research 73: 6185, 2013). […] 11 days thereafter, the number of cells was counted while the cells were stained with a PE-labeled anti-ALCAM antibody (eBioscience, Cat. No. 12-1661-82) and a PE-labeled anti-PDGFRA antibody (eBioscience, Cat#12-1401-81) in order to examine the expression of MSC markers, and the contents of ALCAM-positive cells and PDGFR-positive cells were analyzed by flow cytometry using FACScan (Becton, Dickinson and Company, Code. BECTON-DICKINSON-FACSCAN) to calculate the number of each positive cell per culture.
# [3] = tested on: mouse melanoma cells (B16-F10) forced to express Snail; test: In vivo, intratumoral administration, Snail-positive B16-F10 bone metastasis model (Example 17); parameters: species or system C57BL/6N mice; conditions: intratumoral 200 μg/0.1 mL/tumor on day 7; GFP-positive tumor cells in bone marrow, day 14
# Text: Three antibodies were comparatively analyzed for their antitumor effects and an immunosuppression-mitigating effect using bone metastasis models in which mouse melanoma cells B16-F10 forced to express Snail were subcutaneously and intravenously transplanted in C57BL/6N mice.
# 1. Experiment Group (n=5) • 1. No treatment • 2. Control IgG (anti-DNP) • 3. Anti-FSTL1 Clone #6-55 • 4. Anti-FSTL1 Clone #7-34 • 5. Anti-FSTL1 Clone #8-1 2. Experimental procedure • Day 0: transplantation of GFP-positive and Snail-positive B16-F10 tumor cells (5×10^5 cells subcutaneously & 1×10^5 cells intravenously) • Day 7: intratumoral administration of the antibody (200 μg/0.1 mL/tumor) • Day 14: various assays (with a focus on flow cytometry analysis) 3. Index for drug efficacy evaluation • Effects on the growth of subcutaneous tumor (calculation of tumor volume by tumor size measurement): measured 7, 11, and 14 days after tumor implantation (FIG. 11C) • Effects on bone metastasis (GFP-positive tumor cells in bone marrow) (FIG. 11A) • Effects on the expansion of mesenchymal stem cells (CD45-negative cells in bone marrow and in the spleen) (FIGS. 11B and 11D) • Effects on the expansion of immunosuppressive Treg cells (CD4-positive and Foxp3-positive cells in bone marrow or the spleen) (FIG. 11D) • Other immunosuppressive properties (FIG. 11D)
# In order to evaluate in vivo antibody activity, antitumor effects and immunosuppression-mitigating effects were comparatively analyzed using bone metastasis models in which mouse melanoma cells (B16-F10) forced to express Snail were subcutaneously and intravenously transplanted in C57BL/6N mice. An anti-FSTL1 antibody to be tested was administered into tumor. On day 0, GFP-positive and Snail-positive B16-F10 tumor cells (5×10^5 cells subcutaneously & 1×10^5 cells intravenously) were transplanted. On day 7, the antibody was administered into subcutaneous tumor (200 μg/0.1 mL/tumor). On day 14, various assays were conducted. […]
Molecule,suppressive activity against subcutaneous tumor growth [1],mouse survival period (life-prolonging effect) [1],inhibitory activity against the expansion of ALCAM-positive cells and PDGFRA-positive cells by FSTL1 [2],bone metastasis [3]
B1,all of the clones except for #13 exhibited statistically significant suppressive activity,,,
B2,,therapeutic effects equal to or higher than those of #6-55,,
B3,,,slightly strong tendency of inhibitory activity,
B4,,,,bone metastasis was suppressed by only #6-55 and #8-1
B5,statistically significant suppressive activity,statistically significant life-prolonging effect,slightly strong tendency of inhibitory activity,bone metastasis was suppressed by only #6-55 and #8-1
B6,,,slightly strong tendency of inhibitory activity,no suppressive effect was seen
